Test results taken from article PMC12714728 (npj Viruses, 2025).
Starred links: 1 amine or outer side, 2 acyl side, 3 side chain; linkers in the order of their positions; H or OH if unused. Positions of bridges follow the written chain, without caps; N, C: chain ends. No end group written: not given here. Suc = O=C(CCC(=O)[*:2])[*:1]

B1: cyclic peptide CP14 (peptide)
peptide: LYEDPLGVAGGMG
modifications: head-to-tail lactam cyclized (no template)
notes: source: synthetic peptide (manual solid phase Fmoc chemistry, RP-HPLC)
B2: cyclic peptide CP8 (peptide)
peptide: CLYRDPLGVAGGMGC
modifications: not fully specified (bridges); cysteine pairing not given here
notes: source: synthetic peptide (manual solid phase Fmoc chemistry, iodine oxidation, RP-HPLC)
B3: cyclic peptide CP11 (peptide)
peptide: CYRDPLGVAGGMC
modifications: disulfide 1-13
notes: as for B2
B4: linear peptide LP1 (peptide)
peptide: Suc-VSLYRDPLGVAGGMGVY-NH2
notes: as for B1

Target: T1, hemagglutinin (HA) ectodomain of A/New Caledonia/20/1999 (H1N1) (influenza A virus A/New …, biotin on the BirA site)
Experiment: AlphaScreen or HTRF
Conditions: both partners purified

**Q.** How did the IC50 turn out when B1 was run?
**A.** The IC50 was 1.24 µM.

**Q.** For CYRDPLGVAGEMC (not fully specified; cysteine pairing not given here) [cyclic peptide CP13], which IC50 is on record?
**A.** Its IC50 is 12.8 µM.

**Q.** How did the IC50 turn out when B2 was run?
**A.** The IC50 was 0.16 µM.

**Q.** With B3 as the binder, how does the IC50 read?
**A.** Its IC50 is 4.99 µM.

**Q.** How did the IC50 turn out when B4 was run?
**A.** Its IC50 is 22.9 µM.

**Q.** How did the IC50 turn out when CYEDPLGVAGGMC (not fully specified; cysteine pairing not given here) [cyclic peptide CP12] was run?
**A.** Its IC50 is 4.95 µM.

Target: T1, hemagglutinin (HA) ectodomain of A/New …
Experiment: cell-based or functional assay
Conditions: not given

**Q.** How did the “virus neutralization assay (VNA) EC50, H1/NCa virus” value (from here on “virus neutralization assay”) turn out when B1 was run?
**A.** The value was 45.3 µM.

**Q.** How did the “virus neutralization assay” value turn out when B2 was run?
**A.** Its value is 0.28 µM.

**Q.** For CYEDPLGVAGGMC (not fully specified; cysteine pairing not given here) [cyclic peptide CP12], which “virus neutralization assay” value is on record?
**A.** Its value is 58.3 µM.
